# Experimental data: patent US20200079833A1 (AstraZeneca / MedImmune, published 2020)
# Starred links: 1 amine or outer side, 2 acyl side, 3 side chain; linkers in the order of their positions; H or OH if unused. Non-standard residues stand in square brackets, D forms with d. Groups on a side chain read outwards from the residue. Primed or numbered codes have the meaning given here. No end group written: not given here. *: point of attachment. γGlu = O=C(O)[C@H](CCC(=O)[*:2])N[*:1]; αMeF = C[C@](N)(Cc1ccccc1)C(=O)O; αMeK = C[C@](N)(CCCCN)C(=O)O; Lauroyl = CCCCCCCCCCCC(=O)*; αMeS = C[C@](N)(CO)C(=O)O; PEG2′ = not defined here; Aib = CC(C)(N)C(=O)O
# T1: GLP-1R in the INS1e assay (UniProt P32301 22-463, limits assumed)
# T1 sequence (looked up): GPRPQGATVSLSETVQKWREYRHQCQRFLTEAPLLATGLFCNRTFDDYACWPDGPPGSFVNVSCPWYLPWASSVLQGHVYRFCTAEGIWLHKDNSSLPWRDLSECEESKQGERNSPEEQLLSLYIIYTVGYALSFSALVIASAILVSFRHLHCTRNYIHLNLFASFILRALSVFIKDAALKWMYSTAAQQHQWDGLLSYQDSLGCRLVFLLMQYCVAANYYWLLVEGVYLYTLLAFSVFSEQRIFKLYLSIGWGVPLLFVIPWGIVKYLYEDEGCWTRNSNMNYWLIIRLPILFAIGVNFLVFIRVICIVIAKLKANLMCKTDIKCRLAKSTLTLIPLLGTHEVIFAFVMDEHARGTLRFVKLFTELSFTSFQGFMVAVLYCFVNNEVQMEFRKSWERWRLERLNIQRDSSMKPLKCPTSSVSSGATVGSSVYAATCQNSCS
# T2: glucose-dependent insulinotropic peptide (gastric inhibitory polypeptide) receptor (GIPR), primary cAMP assay … (human, UniProt P48546 22-466)
# T2 sequence (looked up): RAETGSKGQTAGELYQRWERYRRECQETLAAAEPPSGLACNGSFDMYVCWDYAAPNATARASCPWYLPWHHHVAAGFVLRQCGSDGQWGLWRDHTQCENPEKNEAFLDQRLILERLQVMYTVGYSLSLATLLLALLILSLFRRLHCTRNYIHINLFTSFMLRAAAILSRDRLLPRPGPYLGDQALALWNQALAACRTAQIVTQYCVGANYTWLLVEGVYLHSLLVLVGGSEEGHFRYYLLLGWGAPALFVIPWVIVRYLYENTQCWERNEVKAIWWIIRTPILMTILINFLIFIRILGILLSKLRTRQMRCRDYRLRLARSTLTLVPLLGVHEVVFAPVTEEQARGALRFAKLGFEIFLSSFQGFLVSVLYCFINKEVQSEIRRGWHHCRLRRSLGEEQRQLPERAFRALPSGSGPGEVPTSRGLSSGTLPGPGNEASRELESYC
# Biological target: T1, GLP-1R in the INS1e assay
# Assay: cell-based or functional assay
"cAMP INS1e assay EC50, Mean pM GLP-1R [pM]","cAMP INS1e assay EC50, n1 [nM]","cAMP INS1e assay EC50, n2 [nM]",Binder
4020,4.46,3.57,H[Aib]EGS[αMeF]TSDV[αMeS]SK([PEG2′-PEG2′-γGlu-Lauroyl])LEGK([PEG2′-PEG2′-γGlu-Lauroyl])AA[αMeK]EFIAK([PEG2′-PEG2′-γGlu-Lauroyl])VVEGG-NH2 [SEQ ID NO: 464]
4900,6.9,2.89,H[Aib]EGS[αMeF]TSDV[αMeS]SYK([PEG2′-PEG2′-γGlu-Lauroyl])EGEK([PEG2′-PEG2′-γGlu-Lauroyl])A[αMeK]EFIAK([PEG2′-PEG2′-γGlu-Lauroyl])VVEGG-NH2 [SEQ ID NO: 469]
3200,3.86,2.55,H[Aib]EGS[αMeF]TSDV[αMeS]SK([PEG2′-PEG2′-γGlu-Lauroyl])LEGEAA[αMeK]K([PEG2′-PEG2′-γGlu-Lauroyl])FIAK([PEG2′-PEG2′-γGlu-Lauroyl])VVEGG-NH2 [SEQ ID NO: 466]
3370,3.07,3.67,H[Aib]EGS[αMeF]TSDK([PEG2′-PEG2′-γGlu-Lauroyl])SSYLEGEAA[αMeK]K([PEG2′-PEG2′-γGlu-Lauroyl])FIAK([PEG2′-PEG2′-γGlu-Lauroyl])VVEGG-NH2 [SEQ ID NO: 458]
8920,9.92,7.91,H[Aib]EGS[αMeF]TSDV[αMeS]SYK([PEG2′-PEG2′-γGlu-Lauroyl])EK([PEG2′-PEG2′-γGlu-Lauroyl])EAA[αMeK]EFIAK([PEG2′-PEG2′-γGlu-Lauroyl])VVEGG-NH2 [SEQ ID NO: 467]

# Biological target: glucagon receptor (GCGR), primary cAMP assay cell line (human, UniProt P47871 26-477)
# Sequence (P47871 26-477): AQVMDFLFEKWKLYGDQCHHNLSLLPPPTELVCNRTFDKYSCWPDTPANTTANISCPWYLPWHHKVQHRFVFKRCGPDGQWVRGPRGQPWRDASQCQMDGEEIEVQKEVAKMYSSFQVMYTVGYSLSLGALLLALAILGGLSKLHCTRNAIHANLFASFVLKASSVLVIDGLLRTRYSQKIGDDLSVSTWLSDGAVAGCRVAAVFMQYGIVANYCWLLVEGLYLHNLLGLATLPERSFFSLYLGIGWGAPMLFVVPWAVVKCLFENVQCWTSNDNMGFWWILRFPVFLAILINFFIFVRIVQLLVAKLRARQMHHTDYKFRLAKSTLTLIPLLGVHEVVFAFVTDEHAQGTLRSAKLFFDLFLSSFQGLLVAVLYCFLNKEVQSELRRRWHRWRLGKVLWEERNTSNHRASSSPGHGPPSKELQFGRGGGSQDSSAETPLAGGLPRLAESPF
# Assay: cell-based or functional assay
"cAMP Primary assay EC50, n1 [nM]","cAMP Primary assay EC50, n2 [nM]",Binder
20.2,20.2,H[Aib]EGS[αMeF]TSDV[αMeS]SK([PEG2′-PEG2′-γGlu-Lauroyl])LEGK([PEG2′-PEG2′-γGlu-Lauroyl])AA[αMeK]EFIAK([PEG2′-PEG2′-γGlu-Lauroyl])VVEGG-NH2 [SEQ ID NO: 464]
19.8,19.8,H[Aib]EGS[αMeF]TSDV[αMeS]SYK([PEG2′-PEG2′-γGlu-Lauroyl])EGEK([PEG2′-PEG2′-γGlu-Lauroyl])A[αMeK]EFIAK([PEG2′-PEG2′-γGlu-Lauroyl])VVEGG-NH2 [SEQ ID NO: 469]
20.2,20.2,H[Aib]EGS[αMeF]TSDV[αMeS]SK([PEG2′-PEG2′-γGlu-Lauroyl])LEGEAA[αMeK]K([PEG2′-PEG2′-γGlu-Lauroyl])FIAK([PEG2′-PEG2′-γGlu-Lauroyl])VVEGG-NH2 [SEQ ID NO: 466]
20,20,H[Aib]EGS[αMeF]TSDK([PEG2′-PEG2′-γGlu-Lauroyl])SSYLEGEAA[αMeK]K([PEG2′-PEG2′-γGlu-Lauroyl])FIAK([PEG2′-PEG2′-γGlu-Lauroyl])VVEGG-NH2 [SEQ ID NO: 458]
19.8,19.8,H[Aib]EGS[αMeF]TSDV[αMeS]SYK([PEG2′-PEG2′-γGlu-Lauroyl])EK([PEG2′-PEG2′-γGlu-Lauroyl])EAA[αMeK]EFIAK([PEG2′-PEG2′-γGlu-Lauroyl])VVEGG-NH2 [SEQ ID NO: 467]

# Biological target: GLP-1 receptor (GLP-1R), primary cAMP assay cell line (human, UniProt P43220 24-463)
# Assay: cell-based or functional assay
"cAMP Primary assay EC50, Mean pM GLP-1R [pM]","cAMP Primary assay EC50, n1 [nM]","cAMP Primary assay EC50, n2 [nM]",Binder
30.3,0.0254,0.0351,H[Aib]EGS[αMeF]TSDV[αMeS]SK([PEG2′-PEG2′-γGlu-Lauroyl])LEGK([PEG2′-PEG2′-γGlu-Lauroyl])AA[αMeK]EFIAK([PEG2′-PEG2′-γGlu-Lauroyl])VVEGG-NH2 [SEQ ID NO: 464]
45.4,0.0418,0.049,H[Aib]EGS[αMeF]TSDV[αMeS]SYK([PEG2′-PEG2′-γGlu-Lauroyl])EGEK([PEG2′-PEG2′-γGlu-Lauroyl])A[αMeK]EFIAK([PEG2′-PEG2′-γGlu-Lauroyl])VVEGG-NH2 [SEQ ID NO: 469]
22.4,0.0172,0.0275,H[Aib]EGS[αMeF]TSDV[αMeS]SK([PEG2′-PEG2′-γGlu-Lauroyl])LEGEAA[αMeK]K([PEG2′-PEG2′-γGlu-Lauroyl])FIAK([PEG2′-PEG2′-γGlu-Lauroyl])VVEGG-NH2 [SEQ ID NO: 466]
41.4,0.0363,0.0464,H[Aib]EGS[αMeF]TSDK([PEG2′-PEG2′-γGlu-Lauroyl])SSYLEGEAA[αMeK]K([PEG2′-PEG2′-γGlu-Lauroyl])FIAK([PEG2′-PEG2′-γGlu-Lauroyl])VVEGG-NH2 [SEQ ID NO: 458]
55.4,0.0493,0.0615,H[Aib]EGS[αMeF]TSDV[αMeS]SYK([PEG2′-PEG2′-γGlu-Lauroyl])EK([PEG2′-PEG2′-γGlu-Lauroyl])EAA[αMeK]EFIAK([PEG2′-PEG2′-γGlu-Lauroyl])VVEGG-NH2 [SEQ ID NO: 467]

# Biological target: T2, glucose-dependent insulinotropic …
# Assay: cell-based or functional assay
"cAMP Primary assay EC50, n1 [nM]","cAMP Primary assay EC50, n2 [nM]",Binder
20.2,20.2,H[Aib]EGS[αMeF]TSDV[αMeS]SK([PEG2′-PEG2′-γGlu-Lauroyl])LEGK([PEG2′-PEG2′-γGlu-Lauroyl])AA[αMeK]EFIAK([PEG2′-PEG2′-γGlu-Lauroyl])VVEGG-NH2 [SEQ ID NO: 464]
19.8,19.8,H[Aib]EGS[αMeF]TSDV[αMeS]SYK([PEG2′-PEG2′-γGlu-Lauroyl])EGEK([PEG2′-PEG2′-γGlu-Lauroyl])A[αMeK]EFIAK([PEG2′-PEG2′-γGlu-Lauroyl])VVEGG-NH2 [SEQ ID NO: 469]
20.2,20.2,H[Aib]EGS[αMeF]TSDV[αMeS]SK([PEG2′-PEG2′-γGlu-Lauroyl])LEGEAA[αMeK]K([PEG2′-PEG2′-γGlu-Lauroyl])FIAK([PEG2′-PEG2′-γGlu-Lauroyl])VVEGG-NH2 [SEQ ID NO: 466]
20,20,H[Aib]EGS[αMeF]TSDK([PEG2′-PEG2′-γGlu-Lauroyl])SSYLEGEAA[αMeK]K([PEG2′-PEG2′-γGlu-Lauroyl])FIAK([PEG2′-PEG2′-γGlu-Lauroyl])VVEGG-NH2 [SEQ ID NO: 458]
19.8,19.8,H[Aib]EGS[αMeF]TSDV[αMeS]SYK([PEG2′-PEG2′-γGlu-Lauroyl])EK([PEG2′-PEG2′-γGlu-Lauroyl])EAA[αMeK]EFIAK([PEG2′-PEG2′-γGlu-Lauroyl])VVEGG-NH2 [SEQ ID NO: 467]
